From patent publication US11235041B2, “Peptides and combination of peptides for use in immunotherapy against various cancers” (Immatics Biotechnologies GmbH, priority 2015, dated 2022)

Experiments:
[1] = molecular target: HLA-A*02 (Homo sapiens, UniProt P04439, D140Y/D185E/D98H/E176V/E277Q/G131W/G231S/I119V/I121R/I166T/I218V/L300P/N151K/N90K/P208A/P217A/Q86G/Q94H/R138H/R169H); experiment: MHC binding assay: UV-ligand exchange and beta2m ELISA, peptide exchange yield (Table 20); conditions: binding to HLA-A*02; UV-ligand exchange, beta2m ELISA
From the text: Candidate peptides for T cell based therapies according to the present invention were further tested for their MHC binding capacity (affinity). The individual peptide-MHC complexes were produced by UV-ligand exchange, where a UV-sensitive peptide is cleaved upon UV-irradiation, and exchanged with the peptide of interest as analyzed. Only peptide candidates that can effectively bind and stabilize the peptide-receptive MHC molecules prevent dissociation of the MHC complexes. To determine the yield of the exchange reaction, an ELISA was performed based on the detection of the light chain (β2m) of stabilized MHC complexes. The assay was performed as generally described in Rodenko et al. (Rodenko et al., 2006).
96 well MAXISorp plates (NUNC) were coated over night with 2 ug/ml streptavidin in PBS at room temperature, washed 4× and blocked for1h at 37° C. in 2% BSA containing blocking buffer. Refolded HLA-A*02:01/MLA-001 monomers served as standards, covering the range of 15-500 ng/ml. Peptide-MHC monomers of the UV-exchange reaction were diluted 100 fold in blocking buffer. Samples were incubated for 1h at 37° C., washed four times, incubated with 2 ug/ml HRP conjugated anti-β2m for 1h at 37′C, washed again and detected with TMB solution that is stopped with […]. Absorption was measured at 450 nm. Candidate peptides that show a high exchange yield (preferably higher than 50%, most preferred higher than 75%) are generally preferred for a generation and production of antibodies or fragments thereof, and/or T cell receptors or fragments thereof, as they show sufficient avidity to the MHC molecules and prevent dissociation of the MHC complexes.
Table 20: MHC class I binding scores. Binding of HLA-class I restricted peptides to HLA-A*02 was ranged by peptide exchange yield: <20%=+; 20%-49%=++; 50%-75%=+++; >=75%=++++

[2] = test system: CD8+ T cells of healthy HLA-A*02+ donors; experiment: In vitro T-cell priming assay with artificial antigen presenting cells loaded with peptide/HLA-A*02 complexes and anti-CD28, multimer readout; format: cell-based, human; conditions: HLA-A*02 peptides; peptide-specific multimer+ CD8+ T cells after in vitro priming; Table 19B
From the text: FIGS. 4A to 4D show exemplary results of peptide-specific in vitro CD8+ T cell responses of a healthy HLA-A*02+ donor. CD8+ T cells were primed using artificial APCs coated with anti-CD28 mAb and HLA-A*02 in complex with SeqID No 27 peptide (FIG. 4A, left panel), SeqID No 229 peptide (FIG. 4B, left panel), SeqID No 230 peptide (FIG. 4C, left panel) and SeqID No 235 peptide (FIG. 4D, left panel), respectively. After three cycles of stimulation, the detection of peptide-reactive cells was performed by 2D multimer staining with A*02/SeqID No 27 (FIG. 4A), A*02/SeqlD No 229 (FIG. 4B), A*02/SeqlD No 230 (FIG. 4C) or A*02/SeqlD No 235 (FIG. 4D). Right panels (FIGS. 4A, 4B, 4C and 4D) show control staining of cells stimulated with irrelevant A*02/peptide complexes. Viable singlet cells were gated for CD8+ lymphocytes. Boolean gates helped excluding false-positive events detected with multimers specific for different peptides. Frequencies of specific multimer+ cells among CD8+ lymphocytes are indicated.
In order to obtain information regarding the immunogenicity of the TUMAPs of the present invention, the inventors performed investigations using an in vitro T-cell priming assay based on repeated stimulations of CD8+ T cells with artificial antigen presenting cells (aAPCs) loaded with peptide/MHC complexes and anti-CD28 antibody.
In order to perform in vitro stimulations by artificial antigen presenting cells loaded with peptide-MHC complex (pMHC) and anti-CD28 antibody, the inventors first isolated CD8+ T cells from fresh HLA-A*02 leukapheresis products via positive selection using CD8 microbeads (Miltenyi Biotec, Bergisch-Gladbach, Germany) of healthy donors obtained from the University clinics Mannheim, Germany, after informed consent.
PBMCs and isolated CD8+ lymphocytes were incubated in T-cell medium (TCM) until use consisting of RPMI-Glutamax (Invitrogen, Karisruhe, Germany) supplemented with 10% heat inactivated human AB serum (PAN-Biotech, Aidenbach, Germany), 100 U/ml Penicillin/100 μg/ml Streptomycin (Cambrex, Cologne, Germany), 1 mM sodium pyruvate (CC Pro, Oberdorla, Germany), 20 μg/ml Gentamycin (Cambrex). 2.5 ng/ml IL-7 (PromoCell, Heidelberg, Germany) and 10 U/ml IL-2 (Novartis Pharma, Nürnberg, Germany) were also added to the TCM at this step.
Generation of pMHC/anti-CD28 coated beads, T-cell stimulations and readout was performed in a highly defined in vitro system using four different pMHC molecules per stimulation condition and 8 different pMHC molecules per readout condition.
The purified co-stimulatory mouse IgG2a anti human CD28 Ab 9.3 (Jung et al., 1987) was chemically biotinylated using Sulfo-N-hydroxysuccinimidobiotin as recommended by the manufacturer (Perbio, Bonn, Germany). Beads used were 5.6 μm diameter streptavidin coated polystyrene particles (Bangs Laboratories, Illinois, USA).
pMHC used for positive and negative control stimulations were A*0201/MLA-001 (peptide […] (SEQ ID NO. 303) from modified Melan-A/MART-1) and A*0201/DDX5-001 ([…] from DDX5, SEQ ID NO. 304), respectively.
800.000 beads/200 μl were coated in 96-well plates in the presence of 4×12.5 ng different biotin-pMHC, washed and 600 ng biotin anti-CD28 were added subsequently in a volume of 200 μl. Stimulations were initiated in 96-well plates by co-incubating 1×10^6 CD8+ T cells with […] washed coated beads in 200 μl TCM supplemented with 5 ng/ml IL-12 (PromoCell) for 3 days at 37° C. Half of the medium was then exchanged by fresh TCM supplemented with 80 U/ml IL-2 and incubating was continued for 4 days at 37° C. This stimulation cycle was performed for a total of three times. For the pMHC multimer readout using 8 different pMHC molecules per condition, a two-dimensional combinatorial coding approach was used as previously described (Andersen et al., 2012) with minor modifications encompassing coupling to 5 different fluorochromes. […]

Substance	Peptide exchange (MHC class I binding score, peptide exchange yield) [1]	Wells positive [%] (in vitro immunogenicity) [2]
229 (AILAHLNTV; listed as Homo sapiens) [compound 229]	++++ (>=75% = ++++)	++ (20%-49%=++)
4 (KLMPGTYTL; listed as Homo sapiens) [compound 4]	++++ (>=75% = ++++)	+ (<20%=+)
249 (GLCERLVSL; listed as Homo sapiens) [compound 249]	++++ (>=75% = ++++)	+ (<20%=+)
14 (ILAKDLFEI; listed as Homo sapiens) [compound 14]	++++ (>=75% = ++++)	++ (20%-49%=++)
1 (LLYPEPWSV; listed as Homo sapiens) [compound 1]	++++ (>=75% = ++++)	++ (20%-49%=++)
92 (GLLFSLRSV; listed as Homo sapiens) [compound 92]	++++ (>=75% = ++++)	++ (20%-49%=++)
248 (YLDRFLAGV; listed as Homo sapiens) [compound 248]	++++ (>=75% = ++++)	++ (20%-49%=++)
12 (GLLPLLHRA; listed as Homo sapiens) [compound 12]	++++ (>=75% = ++++)	++++ (>=70%=++++)
